This note sets out measurements from the supplement of paper PMC10567573.

± gives the standard deviation.

The nature of the data set: protein stability index of a GFP-peptide fusion (GPS, HEK-293T) (PSI 1-6); higher = more stable. The note with it: c terminus: a fixed tail appended.
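Note: 24-mer peptide tiles fused after GFP, lentivirally expressed, FACS-sorted into six equal bins by GFP/DsRed ratio, decoded by Illumina sequencing, PSI is the read-weighted mean bin number.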

Regarding LERKFRCQQEQLFQTRQEMTSMSA [LRRC45], the protein stability index was determined as 3.22 ± 0.29 (treatment: DMSO) and 3.21 ± 0.24 (treatment: MLN4924 1 uM, 8 h).
The like results for LFGTIAYLPPERIREKSRLFDTKH [RIPK4] were, in that order, 2.57 ± 0.52 and 2.57 ± 0.27.
Take LFLSHVLALGLGIYIGKRLSTPSA [BNIP3L]: the protein stability index worked out at 2.86 ± 0.86 (treatment: DMSO) and 2.94 ± 0.55 (treatment: MLN4924 1 uM, 8 h).
For LFYFFLYQYCSIHCSDRKQVRNIA [CSTF3], in that order: 2.92 ± 0.83 and 2.61 ± 0.33.
The like results for LGGFRHKVTGVEYHNAGTQTVPKR [IQUB] were, in that order, 4.03 ± 0.36 and 4.1 ± 0.3.
For LGMVTPVNDLRGSDSIAYDKGEKL [ADD1], in that order: 4.62 ± 0.3 and 4.9 ± 0.089.
Consider LGYCLLLMLAGMGLHYIAFRKVKQ [DNAJC4], for which the protein stability index reads like this: (treatment: DMSO) 3.18 ± 0.28; (treatment: MLN4924 1 uM, 8 h) 3.11 ± 0.38.
In the case of LHLLYLLEKVECTPSQEHLKHQTV [FEM1A], the protein stability index by setting is: (treatment: DMSO) 2.29 ± 0.43; (treatment: MLN4924 1 uM, 8 h) 2.23 ± 0.26.
The like results for LICEGLYPASIVDEPTFKVLLKTA [ZBED1] were, in that order, 2.25 ± 0.28 and 2.31 ± 0.24.
For LIGGLEAQLSELRCEMEAQNQEYK [KRT15], in that order: 4.1 ± 0.15 and 4.52 ± 0.44.
For LIHKADEVTLSEAGSTAGAAETRG [PALM], in that order: 5.31 ± 0.2 and 5.18 ± 0.15.
Take LIPGDAYTDYVATRWYRAPELLVG [CDKL4]: the protein stability index (treatment: DMSO) was determined as 2.18 ± 0.22 and the protein stability index (treatment: MLN4924 1 uM, 8 h) came to 2.18 ± 0.071.
The sequence LIQRKKVHVFGDELSLVTLFRCIQ [TNFSF13B] registered a protein stability index (treatment: DMSO) of 2.25 ± 0.67 and a protein stability index (treatment: MLN4924 1 uM, 8 h) of 2.04 ± 0.34.
Regarding LIYDFIEDQGGLEAVRQEMRRQEP [WAS], the protein stability index came out at 2.55 ± 0.28 (treatment: DMSO) and 2.75 ± 0.42 (treatment: MLN4924 1 uM, 8 h).
The like results for LKASMRELGLLIFFLFIGVILFSS [KCNA1] were, in that order, 2.33 ± 0.45 and 2.31 ± 0.48.
For LKECLKKQLEFCFSRENLSKDLYL [LARP4], the protein stability index (treatment: MLN4924 1 uM, 8 h) was found to be 2.67 ± 0.89.
In turn, LKKGESECQYYIDKLEYLDEKQRD [NET1] returned a protein stability index (treatment: DMSO) of 4.55 ± 0.15 and a protein stability index (treatment: MLN4924 1 uM, 8 h) of 4.5 ± 0.32.
The like results for LKLLDELPIAKVMKDYLKHKFDDI [ASB7] were, in that order, 2.04 ± 0.3 and 2.14 ± 0.28.
For LKLVAHPRAKSKVWKYFGFDTNAE [ZBED1], in that order: 2.23 ± 0.39 and 2.25 ± 0.26.
The like results for LKPRPEPPKKPSNWRRKHEEFIAT [ZC2HC1A] were, in that order, 3.47 ± 0.22 and 3.56 ± 0.17.
Regarding LLDRARGAAAQGQTQTVAAQAQAL [PI4K2A], the protein stability index was determined as 4.3 ± 0.29 (treatment: DMSO) and 4.38 ± 0.2 (treatment: MLN4924 1 uM, 8 h).
For LLFKYQMKEPITKAEILESVIKNY [MAGEA10], in that order: 2.53 ± 0.32 and 2.74 ± 0.29.
The like results for LLLSILNPTRQDESIQRIAVHLCN [ZER1] were, in that order, 2.75 ± 0.42 and 2.42 ± 0.45.
The like results for LLPKGSKEEQRDYVFYLAVGNYRL [FIS1] were, in that order, 2.63 ± 0.56 and 2.15 ± 0.063.
Take LLRFAQVFSQMIHLNETVKAPDIE [FEM1B]: the protein stability index came to 2.67 ± 1.1 (treatment: DMSO) and 2.46 ± 0.85 (treatment: MLN4924 1 uM, 8 h).
The like results for LLSLKQNHEQEVNTLRCQLGDRLN [KRT33B] were, in that order, 3.38 ± 0.16 and 3.46 ± 0.2.
LMSGCSSELKNRMEYALNMLLQRC [PLK2] displayed a protein stability index (treatment: DMSO) of 2.04 ± 0.22 and a protein stability index (treatment: MLN4924 1 uM, 8 h) of 2.22 ± 0.29.
As for LNQKGTAVETEGSGSRHPPWARGC [SLC2A12], the protein stability index amounted to 3.98 ± 0.29 (treatment: DMSO) and 4.08 ± 0.38 (treatment: MLN4924 1 uM, 8 h).
The like results for LNQQVVSSSEQLQCCQTEIIELRR [KRT36] were, in that order, 4.29 ± 0.22 and 4.04 ± 0.27.
For LNTRSQAPLLRWVLTLSFLVATVA [HMOX1], in that order: 2.33 ± 0.46 and 2.15 ± 0.31.
As to LPFGPFNGTAWTYHSQDELGGFSH [PKD2L1], the protein stability index was 2.41 ± 0.13 (treatment: DMSO) and 2.58 ± 0.18 (treatment: MLN4924 1 uM, 8 h).
The like results for LPIFTPAKMGATKEEREDTPIQLQ [TCAP] were, in that order, 4.7 ± 0.089 and 4.72 ± 0.088.
For LPKELPADAVNLTIPASLDLSPLL [PLAGL1], in that order: 3.32 ± 0.19 and 3.48 ± 0.28.
For LPQETNLTLKVCKPQAPQKLDPTL, in that order: 3.58 ± 0.36 and 3.91 ± 0.49.
For the sequence LPREPGDSAQFTKALAIILHLLYL [FEM1A], the protein stability index came to 2.16 ± 0.12 (treatment: DMSO) and 2.23 ± 0.12 (treatment: MLN4924 1 uM, 8 h).
For LQELCYQWLRPHVSTKEQILDLLV [ZSCAN9], in that order: 2.52 ± 0.094 and 2.45 ± 0.28.
For LQVRGYPEEKKEEEGSANRRPEDQ [CHGA], in that order: 5.61 ± 0.21 and 5.7 ± 0.25.
